This passage reports IC50 and EC50, required concentration for 50% inhibition in a human platelet aggregation assay results from patent US20100297101A1 (Scripps Research, published 2010).

Bridges are numbered along the chain shown (N, C = ends). Where no end group is shown, it is not given here.

In assay [1] the target is human integrin αIIbβ3 (purified, Enzyme Research Laboratories) (human) (UniProt P08514). Description: competitive ELISA: inhibition of biotinylated human fibrinogen binding to immobilised human integrin αIIbβ3.
The target in assay [2] is native integrin αIIbβ3 expressed on the surface of human platelets (human) (UniProt P08514). Nature of the assay: cell-based or functional assay.
For assay [3], the target named is T1, human integrin αIIbβ3 (purified, Enzyme Research Laboratories) (human, UniProt P08514 32-1039; P05106 27-788).
T1 construct: Bought protein, coated on ELISA plates or used in solution; also called integrin αIIββ3; GPIIb/IIIa
Nature of the assay: competitive ELISA: inhibition of biotinylated fibrinogen binding to immobilised integrin αIIbβ3. (In an ELISA, binding on a coated surface is turned into a signal by an enzyme label.)

Take Fab abciximab (ReoPro): the IC50 in assay [1] was 90 nM. The same molecule displayed an EC50, required concentration for 50% inhibition in a human platelet aggregation assay in assay [2] of 45 nM.

B1: cyclic peptide VWCRADRRC (peptide)
peptide: VWCRADRRC
modifications: disulfide 3-9 (inferred); not fully specified
In turn, B1 displayed an IC50 in assay [3] of 1200 nM.

B2: cyclic peptide VVCRADRRC (peptide)
peptide: VVCRADRRC
modifications: disulfide 3-9 (inferred)
notes: Synthetic nonapeptide (Peptron)
In the case of B2, the IC50 in assay [3] was 11000 nM.

B3: cyclic peptide VWCRADKRC (peptide)
peptide: VWCRADKRC
modifications: disulfide 3-9 (inferred)
As to B3, the IC50 in assay [3] was 4200 nM.

For orientation: IC50 means the point on the concentration scale where inhibition reaches its midpoint. High values mean weaker potency, low ones greater potency.
